Data as given in the nanobody polyreactivity screen of Harvey et al. (2022).

Test: yeast display, Sf9 membrane polyspecificity reagent, FACS + sequencing; frameworks hold sequencing errors
Outline: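 Using colony PCR, genes from sorted yeast display clones were amplified, then sequenced on MiSeq at 2 × 250 and filtered by CDR length. The clones had been stained with 10% biotinylated, detergent-solubilized Sf9 membrane reagent for 1 hour at 4 °C and sorted by FACS into low and high (top ~1%) gates on anti-HA and streptavidin fluorescence. Polyreactivity labels come from the gate of origin.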
With “QVQLVESGGGLVQAGGSHRLSCAASGLTLYQYTMGWYRQAPGKERELVAAITTSGSTYYADSVKGRFTISRDNEKNTVYLQMNSLKPEDTAVYYCAAVVYYVDTLSGYRYGYDYWGQCTQVTVSS” the “polyreactivity (PSR sort gate)” value was “low polyreactivity”. For “QVQLVESGGGLVQAGGSHRLSCAASGRIFGRNAMGCYRQAPGKERELVATITSGGGTNYADSVKGRFTISRDNAKNTVYLQMNSLKPEDTAVYYCAATVAILRKFWMDYWGQGTQVTVSS”, the “polyreactivity (PSR sort gate)” value was “low polyreactivity”. In the case of “QVQLVESGGGLVQAGGSHRLSCAASGRIFRVYVMGWYRQAPGKEREFVAAISRRGSRTYADSVKGRFTISRDNAKNTVYLLMNSLKTEDTAVYYWAAECGYQAHPGQGDYWGQGTQVTVSS”, the “polyreactivity (PSR sort gate)” value is reported as “high polyreactivity”. In the case of “QVQLVESGGGLVQAGGSHRLSCAASGRIFVGYAMGWYRQAPGKERELVAGISGGGRTNYADSVKGRFTISRDNAKNTVYLQMNSLKPEDTAVYYCIAGGSVWYRSQRGWKGYYNQMDYWGQGTQVTVSS”, the “polyreactivity (PSR sort gate)” value is reported as “high polyreactivity”. In the case of “QVQLVESGGGLVQAGGSHRLSCAASGRIIESYAMGWYRQAPGKERELVAAISSNDGSTYYADSVKGRFTISRDNAKNTVYLQMNSLKPEDTAVYDCAAELGQVDYGGPSYDYWGQGTQVTVSS”, the “polyreactivity (PSR sort gate)” value is reported as “low polyreactivity”. In the case of “QVQLVESGGGLVQAGGSHRLSCAASGRLFRYYDMGWYRQAPGKERELVARISSTGRTYADSVMGRFTISRDNAKNTVYLQMNSLKPVDTAVYYCAALFHTRGHSKYDYWGQGTQVTVSS”, the “polyreactivity (PSR sort gate)” value is reported as “high polyreactivity”. For “QVQLVESGGGLVQAGGSHRLSCAASGRTFGHNAMGWYRQAPGKEMEFVASIRSGGITDYADSVKGRFTISRDNAKNTVYLQMNSLKPEDTAVYYCAADVLDWYDLLRDDYWGQGTQVTVSS”, the “polyreactivity (PSR sort gate)” value was “low polyreactivity”. In the case of “QVQLVESGGGLVQAGGSHRLSCAASGRTFWYNAMGWYRQAPGKERELVAAITSGDSTNYADSVKGRFTISRDNAKNTVYLQMNSLKPEVTAAYYCAAEGRPNWYYWAEGYYWGQGTQVTVSS”, the “polyreactivity (PSR sort gate)” value is reported as “high polyreactivity”. With “QVQLVESGGGLVQAGGSHRLSCAASGRTFYINAMGWYRQAPGKERELVAAISIRGGGTYYADSVKGRFTISRDNAKNTVYLQMNSLKPEDTAVYYCAAEYTEGYTHDYWGQGTQVTVSS” the “polyreactivity (PSR sort gate)” value was “low polyreactivity”. For “QVQLVESGGGLVQAGGSHRLSCAASGRTFYYNAMGVYRQAPGKERELVAGITRSGSSTYYADSVKGRFTISRVNAKNTVYLQMNSLKPEDTAVYYCATRRSGYYSFYYWGQGTQVTVSS”, the “polyreactivity (PSR sort gate)” value was “high polyreactivity”. In the case of “QVQLVESGGGLVQAGGSHRLSCAASGSTFEYNDMGGNRQEQGKERELVAAISSGGDTNYADSVKGRFTISRDNAKNTVFLQMNSLKPEDTAVYYCAADDWSPYLCYYGYAGYYYCGQGTQVTVSS”, the “polyreactivity (PSR sort gate)” value is reported as “low polyreactivity”. For “QVQLVESGGGLVQAGGSHRLSCAASGSTFGDYAMGWYRQAPGKERELVAAISVRGGSTYYADSVKGRFTISRDNAKNTVYLQMNSLKPVVTAVYYCNKDLYRYPGYDYWGQGTQVTVSS”, the “polyreactivity (PSR sort gate)” value was “high polyreactivity”. With “QVQLVESGGGLVQAGGSHRLSCAASGSTFIDYAMGWYRQAPGKERELVAAITNGGNTKYADSVKGRFTISRDNAKNTVYLQMNSLKPEDTAVYYCAREPSIFTPSYDYWGQGTQVTVSS” the “polyreactivity (PSR sort gate)” value was “low polyreactivity”. For “QVQLVESGGGLVQAGGSHRLSCAASGSTFRVYAMGGYRQAPGKERELVARISITGGTTRYADSVKGRFTISRDNAKNTVYLQMNSLKPEDTAVYYCNADYDWYYWYLYKYPFDYWGQGTQVTVSS”, the “polyreactivity (PSR sort gate)” value was “low polyreactivity”. In the case of “QVQLVESGGGLVQAGGSHRLSCAASGSTRYYMGWYRQAPGKEREFVARITWSGTRTYYADSVKGRFTISRDNAKNTVYLQMNSLKPEDTAVYYCNAGVVWGQGTQVTVSS”, the “polyreactivity (PSR sort gate)” value is reported as “high polyreactivity”. For “QVQLVESGGGLVQAGGSHRLSCAASGYIFRYSTMGWYRQAPGKERELVAVITRGGSTYYADSVKGRFTISRDNAKNTVYLQMTSLNPEDTAVYYCAAVRTKVWRGPEMDYWGQCTQVTVSS”, the “polyreactivity (PSR sort gate)” value was “high polyreactivity”. For “QVQLVESGGGLVQAGGSHRLSCAAYGRTFGVYAMGWYRQAPGKERELVAAISSRGGSTYYADSVKGRFTISRDNAKNSVYLQMNSLKPEDTAFYYCAAPWYQGLDYWGQGTQVTVSS”, the “polyreactivity (PSR sort gate)” value was “high polyreactivity”. With “QVQLVESGGGLVQAGGSHRLSCAAYGSTFFPNCMGWYRQAPGKERELVAAITSGGSTYADSVKGRFTISRDNAKNTVYLQMNSLKQEDTAFYYCAADSRQGFLLYGYWGQATQVTVSS” the “polyreactivity (PSR sort gate)” value was “low polyreactivity”. For “QVQLVESGGGLVQAGGSHRLSCADSGFILAYYAMGWYRPAPGKERELVAAISIGSSTDYADSVKGRFTISRDNAKNTVYLQMNSLKPEDTAVYYCAARDYYYEYDYWGQGTQVTVSS”, the “polyreactivity (PSR sort gate)” value was “low polyreactivity”. With “QVQLVESGGGLVQAGGSHRLSFAASGGIFRGYALGWNRQAPGKERELGATIRSSGRTNYADSVKGRFTIARDNAKNTVYLQMNCLKPDDTAVYYCNKRRWWQYDRWSDWVLGGDDYWGQGTQLTVSS” the “polyreactivity (PSR sort gate)” value was “low polyreactivity”. In the case of “QVQLVESGGGLVQAGGSHRLSSAASGLTFGGNAMGWYRQAPGKERELVAGISSSGNTNYADSVKGRFTISRDNAKNTVYLQMNSLKPEDTAVYYCAADENITYPVYDMYDWGQGTQVTVSS”, the “polyreactivity (PSR sort gate)” value is reported as “low polyreactivity”. In the case of “QVQLVESGGGLVQAGGSHRLSSAASGTTFYGNAMGWYRQAPGKERELVAAISQGGGRTYYADSVKGRFTISRDIAKNTVYLQMISLKPEDTAVYYCAADVWWYRLDFDYWGQGTQVTVSS”, the “polyreactivity (PSR sort gate)” value is reported as “high polyreactivity”. With “QVQLVESGGGLVQAGGSHRLTCAASGSTFFAYAIGCYRPAPGTERELVAAISSRGGRTYYADSVKGRFTISRDNAQNTVYLQMNSLKPEDTAVYYCAVGPGLAQSYDYWGQGTQVTVSS” the “polyreactivity (PSR sort gate)” value was “high polyreactivity”. For “QVQLVESGGGLVQAGGSHRVSCAASGSTFDRYTMGWYRQAPGTERELVAAISISGGSTYYADSVKGRFTISRDNAKNTVYVQMNSLKPEDTAVYYCAARLDTVTDYYYWGQGTQVNVSS”, the “polyreactivity (PSR sort gate)” value was “low polyreactivity”. For “QVQLVESGGGLVQAGGSHSLRCAASGSIFYRYDRGWYRQAPGTARELVAAITRSGGSTYYADSVKGRFTISRDNAKNTVYLQMNSLKPEDTAVYFCNASIDRYRLLIFPRPYWKYAYWGQGTQVTVSS”, the “polyreactivity (PSR sort gate)” value was “low polyreactivity”. With “QVQLVESGGGLVQAGGSIRLICAASGPIFSSYAIGCYRQAPGKERELVAAITSSGTSTYYADSVKGRFTISRDYAKNTVYVQMTSLKPEDTAVYYCAARRARTGDYWGQGTQVTLSS” the “polyreactivity (PSR sort gate)” value was “high polyreactivity”. In the case of “QVQLVESGGGLVQAGGSIRLIWAASGSTVPSYTMGWYRQAPGKERELVAAISGSGGSTYYADSVKGRFTISRDNAKNTVYLQMNSLKPEDTAVYSCAADYRLQLSYAFGDDYWGQGPQVTVSS”, the “polyreactivity (PSR sort gate)” value is reported as “low polyreactivity”. For “QVQLVESGGGLVQAGGSIRLSCAASGITFGRNTMGWYRQAPAKERELVAAIDSGGNTYADSVKGRFTISRDNAKNTVYLQMNSLKPEDTAVYYCAVDGYYLYYDYDYWGQGTQVTVSS”, the “polyreactivity (PSR sort gate)” value was “low polyreactivity”. For “QVQLVESGGGLVQAGGSIRLSCAASGRILYGNAMGWYRQAPGKEREFVAAITFRGGSTYYADSVKGRFTISRDNAKNTVYLQMNSLKPEDTAVYYCNARGHCGWGTSMYYWGQGTQVTVSS”, the “polyreactivity (PSR sort gate)” value was “high polyreactivity”. With “QVQLVESGGGLVQAGGSIRLSCAASGRTFGQNPMGWYRQAPGKERELVAVITRGGSTNYADSVKGRFTISRDNAKNTVYLQMNSLKPEDTAVYYCAADYTAYGYDYWGQGTQVTVSS” the “polyreactivity (PSR sort gate)” value was “low polyreactivity”. For “QVQLVESGGGLVQAGGSIRLSCAASGRTFYPNAMGWYRQAPGKERELVAVISSGGNTDYADSVKGRFTISRDNAKNTVYLQMYSLKPEDTAVYYCNTDTTVVSHYRSYWWGAGYDYWGQGTQVTVSS”, the “polyreactivity (PSR sort gate)” value was “low polyreactivity”. For “QVQLVESGGGLVQAGGSIRLSCAASGSIFEVNAMGWYRQAPGKERELVAGISNADSTNYADSVKGRFTISRDNAKNTVYLQMNSLKPEDTAVYYCATDLYRDPPKDLLGPEYDYWGQGTQVTVSS”, the “polyreactivity (PSR sort gate)” value was “low polyreactivity”. For “QVQLVESGGGLVQAGGSIRLSCAASGSIFLGYAMGSYRQATGKETELFAAISSGGTRTYYADSVKGRFTITRDNAKNTVYLQMNCLKPEDTAVYYCSARYIPIQYPSYRTWGGYSWGQGTQVTVSS”, the “polyreactivity (PSR sort gate)” value was “high polyreactivity”. With “QVQLVESGGGLVQAGGSIRLSCAASGSTFFQYAMGWYRQAPGKERELVAAISSRGGRTYYADSVKGSFTISRDNAKNTVYLQMNSLKPEDTAVYYCAVDHLTRSGDGEYWGQGTQVTVSS” the “polyreactivity (PSR sort gate)” value was “high polyreactivity”. In the case of “QVQLVESGGGLVQAGGSIRLSCAASGSTFKTYVMGWYRQAPGKERELVAAISFSDGTTYYADSVKGRFTISRDNAKNTVYLQMNSLKPEDTAVYYCAAEGYQSQYDYWGQGTQVTVSS”, the “polyreactivity (PSR sort gate)” value is reported as “high polyreactivity”. For “QVQLVESGGGLVQAGGSIRLSCAASGSTFYSYAMGWYRQATGKERELVAAISSGGSTNYADSVKGRFTISRDNAKNTVYLQMNSLKPEDTAVYYCAVDYPVIVYQRGYWGQGTQVTVSS”, the “polyreactivity (PSR sort gate)” value was “low polyreactivity”. In the case of “QVQLVESGGGLVQAGGSIRLSCAASGYSFNGYAMGWYRQAPGKEREFVAAISWSGGSTYYADSVKGRFTISRDNAKNTVYLQMNSLKPEDTAVYYCAKRRGGGYDYWGQGTQVTVSS”, the “polyreactivity (PSR sort gate)” value is reported as “low polyreactivity”. For “QVQLVESGGGLVQAGGSIRLSCDHSGRNLYRNSMGWYRQAPEKERELVARITSSGASTYYADSVKGRFTISRDNAKNTVTIQMNSLKQEYTAVYYCAAQYLSRRYGPYYTYNYRGQGTQVTVSS”, the “polyreactivity (PSR sort gate)” value was “high polyreactivity”. For “QVQLVESGGGLVQAGGSIRLSCSASGNIFSDNAMGWYRQAPGKERELGAAITSGGSTNYADSVNGRFTISRDNAKNTVYLQMNSLKPEDTAVYYCAADRGFYPSLWDYDYWGQGTQVTVSS”, the “polyreactivity (PSR sort gate)” value was “low polyreactivity”. With “QVQLVESGGGLVQAGGSIRLTCAASGGTFGRNAMGWYRQAPGKERELVATITRRGGSTYYADSVKGRFTISRDNAKTSVYLQMNSLKAEDTAVYYCAARDVYRGGLFDYWGQGTQVTVSS” the “polyreactivity (PSR sort gate)” value was “high polyreactivity”. For “QVQLVESGGGLVQAGGSLGISCAACGSIFSVNAMGWFRQAPGKERELVAGITISGGRTYYADSVKGRFTISRDNAKNTVYLQKNSLKPEDTAVYYCAAYVDPAYYYWGPGTQVTVSS”, the “polyreactivity (PSR sort gate)” value was “low polyreactivity”. For “QVQLVESGGGLVQAGGSLGLSCAASGFIFSSNAMGWYRQARGKERELVAAITSGGGRTYSADSVKRRFTISRDNAKNTVYLQKNSLKPEDTAVYYCNAEQWQSSEYGEWSKRDYWGQGTQVTVSS”, the “polyreactivity (PSR sort gate)” value was “low polyreactivity”. For “QVQLVESGGGLVQAGGSLGLSCAASGFSFDRNAMGWYRQAPGKERGLVAAISSSGGRTYYPDSVKGRFTISRDYAKKTVYLQMNSLKPDDTAVYYCAAKLSRRYYYWGQGTQVTVSS”, the “polyreactivity (PSR sort gate)” value was “high polyreactivity”.
